Test results from paper PMC8465637, “Three ParA Dimers Cooperatively Assemble on Type Ia Partition Promoters” (Genes, 2021).

How the values were obtained:
ParA_F (SopA) [1] = biological target: T1, ParA_F (SopA) (plasmid F, UniProt P62556 1-388); assay: fluorescence titration; conditions: apparent Kd; EMSA: 30 mM HEPES-KOH pH 7.5, 150 mM KCl, 3 mM MgCl2, 1 mM DTT, 10% glycerol, 37 C; SPR: 20 mM Hepes-KOH pH 7.4, 100 mM KCl, 10 mM MgCl2, 1 mM DTT, 24 C; MST: …
T1 sequence: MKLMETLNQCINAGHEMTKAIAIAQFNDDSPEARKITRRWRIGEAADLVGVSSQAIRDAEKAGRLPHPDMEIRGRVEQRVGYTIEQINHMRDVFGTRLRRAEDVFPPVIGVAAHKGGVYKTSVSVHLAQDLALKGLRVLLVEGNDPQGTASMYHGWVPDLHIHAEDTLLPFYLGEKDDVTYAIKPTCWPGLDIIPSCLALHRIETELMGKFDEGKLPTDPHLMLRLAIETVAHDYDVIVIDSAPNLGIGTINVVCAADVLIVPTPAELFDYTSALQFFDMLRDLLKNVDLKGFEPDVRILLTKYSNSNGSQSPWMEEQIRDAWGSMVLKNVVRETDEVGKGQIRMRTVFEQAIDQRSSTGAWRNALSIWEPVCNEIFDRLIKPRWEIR

[2] = test system: ParB_F (SopB) (plasmid F); assay: EMSA; conditions: apparent Kd; EMSA: 30 mM HEPES-KOH pH 7.5, 150 mM KCl, 3 mM MgCl2, 1 mM DTT, 10% glycerol, 37 C; SPR: 20 mM Hepes-KOH pH 7.4, 100 mM KCl, 10 mM MgCl2, 1 mM DTT, 24 C; MST: …
ParA_F (SopA) [3] = biological target: T1, ParA_F (SopA); assay: SPR; 1 uM ParA_F, no nucleotide; EMSA: 30 mM HEPES-KOH pH 7.5, 150 mM KCl, 3 mM MgCl2, 1 mM DTT, 10% glycerol, 37 C; SPR: 20 mM Hepes-KOH pH 7.4, 100 mM KCl, 10 mM MgCl2, 1 mM DTT, 24 C; MST: 10 mM Tris-HCl pH 8, 150 mM NaCl, 50 mM CaCl2, 0.05% Tween 20, 20 mg/mL BSA, 25 C; conditions: protein: recombinant; tags: none (native); chain copies: 2; label: biotin
ParA_F (SopA) [4] = biological target: T1, ParA_F (SopA); assay: fluorescence titration; apparent Kd; EMSA: 30 mM HEPES-KOH pH 7.5, 150 mM KCl, 3 mM MgCl2, 1 mM DTT, 10% glycerol, 37 C; SPR: 20 mM Hepes-KOH pH 7.4, 100 mM KCl, 10 mM MgCl2, 1 mM DTT, 24 C; MST: 10 mM Tris-HCl pH 8, 150 mM NaCl, 50 mM CaCl2, 0.05% Tween 20, 20 mg/mL BSA, 25 C; conditions: protein: recombinant; tags: none (native); chain copies: 2; label: 5' Cy3
ParA_F (SopA) [5] = biological target: T1, ParA_F (SopA); assay: EMSA; equimolar ParB_F; estimate close to the probe concentration; no supershift; EMSA: 30 mM HEPES-KOH pH 7.5, 150 mM KCl, 3 mM MgCl2, 1 mM DTT, 10% glycerol, 37 C; SPR: 20 mM Hepes-KOH pH 7.4, 100 mM KCl, 10 mM MgCl2, 1 mM DTT, 24 C; MST: 10 mM Tris-HCl pH 8, 150 mM NaCl, 50 mM CaCl2, 0.05% Tween 20, 20 mg/mL BSA, 25 C; conditions: protein: recombinant; tags: none (native); chain copies: 2; label: 5' Cy3
ParA_F (SopA) [6] = biological target: T1, ParA_F (SopA); assay: MST; no nucleotide; EMSA: 30 mM HEPES-KOH pH 7.5, 150 mM KCl, 3 mM MgCl2, 1 mM DTT, 10% glycerol, 37 C; SPR: 20 mM Hepes-KOH pH 7.4, 100 mM KCl, 10 mM MgCl2, 1 mM DTT, 24 C; MST: 10 mM Tris-HCl pH 8, 150 mM NaCl, 50 mM CaCl2, 0.05% Tween 20, 20 mg/mL BSA, 25 C; conditions: protein: recombinant; tags: none (native); chain copies: 2; label: 5' Cy3
ParA_F (SopA) [7] = biological target: T1, ParA_F (SopA); assay: fluorescence titration; EMSA: 30 mM HEPES-KOH pH 7.5, 150 mM KCl, 3 mM MgCl2, 1 mM DTT, 10% glycerol, 37 C; SPR: 20 mM Hepes-KOH pH 7.4, 100 mM KCl, 10 mM MgCl2, 1 mM DTT, 24 C; MST: 10 mM Tris-HCl pH 8, 150 mM NaCl, 50 mM CaCl2, 0.05% Tween 20, 20 mg/mL BSA, 25 C; conditions: protein: recombinant; tags: none (native); chain copies: 2; label: 5' Cy3
ParA_F (SopA) [8] = biological target: T1, ParA_F (SopA); assay: EMSA; 3 mM Mg2+, apparent Kd; EMSA: 30 mM HEPES-KOH pH 7.5, 150 mM KCl, 3 mM MgCl2, 1 mM DTT, 10% glycerol, 37 C; SPR: 20 mM Hepes-KOH pH 7.4, 100 mM KCl, 10 mM MgCl2, 1 mM DTT, 24 C; MST: 10 mM Tris-HCl pH 8, 150 mM NaCl, 50 mM CaCl2, 0.05% Tween 20, 20 mg/mL BSA, 25 C; conditions: protein: recombinant; tags: none (native); chain copies: 2; label: 5' Cy3
ParA_F (SopA) [9] = biological target: T1, ParA_F (SopA); assay: SPR; EMSA: 30 mM HEPES-KOH pH 7.5, 150 mM KCl, 3 mM MgCl2, 1 mM DTT, 10% glycerol, 37 C; SPR: 20 mM Hepes-KOH pH 7.4, 100 mM KCl, 10 mM MgCl2, 1 mM DTT, 24 C; MST: 10 mM Tris-HCl pH 8, 150 mM NaCl, 50 mM CaCl2, 0.05% Tween 20, 20 mg/mL BSA, 25 C; conditions: protein: recombinant; tags: none (native); chain copies: 2; label: biotin
ParA_F (SopA) [10] = biological target: T1, ParA_F (SopA); assay: EMSA; 3 uM ParA_F; EMSA: 30 mM HEPES-KOH pH 7.5, 150 mM KCl, 3 mM MgCl2, 1 mM DTT, 10% glycerol, 37 C; SPR: 20 mM Hepes-KOH pH 7.4, 100 mM KCl, 10 mM MgCl2, 1 mM DTT, 24 C; MST: 10 mM Tris-HCl pH 8, 150 mM NaCl, 50 mM CaCl2, 0.05% Tween 20, 20 mg/mL BSA, 25 C; conditions: protein: recombinant; tags: none (native); chain copies: 2; label: 5' Cy3
ParA_F (SopA) [11] = biological target: T1, ParA_F (SopA); assay: SPR; 10 mM Mg2+, no nucleotide; 3 dimers per DNA; EMSA: 30 mM HEPES-KOH pH 7.5, 150 mM KCl, 3 mM MgCl2, 1 mM DTT, 10% glycerol, 37 C; SPR: 20 mM Hepes-KOH pH 7.4, 100 mM KCl, 10 mM MgCl2, 1 mM DTT, 24 C; MST: 10 mM Tris-HCl pH 8, 150 mM NaCl, 50 mM CaCl2, 0.05% Tween 20, 20 mg/mL BSA, 25 C; conditions: protein: recombinant; tags: none (native); chain copies: 2; label: biotin
[12] = biological target: the molecule itself; assay: SEC; analytical gel filtration on a calibrated Superdex 75 10/300GL column; ParAF 4 µM in buffer E (50 mM bis-Tris pH 6, 400 mM NaCl, 0.5 mM DTT), with or without 1 mM ADP; one peak at 9.5 mL

Molecule: 75-bp probe with motifs #1 and #3
- Kd (ParA_F (SopA) [1]): 1200 nM

Molecule: 120-bp Cy3 probe for ParB_F (non-specific)
- Kd [2]: 1000 nM

B1: nsDNA 136-bp (dsDNA)
DNA 1: CAGTGAATTGTAATACGACTCACTATAGGGCGAATTGGAGCTCCACCGCGGTGGCGGCCGCTCTAGAACTAGTGGATCCCCCGGGCTGCAGGAATTCGATATCAAGCTTATCGATACCGTCGACCTCGAGGGGGGG
DNA 2: CCCCCCCTCGAGGTCGACGGTATCGATAAGCTTGATATCGAATTCCTGCAGCCCGGGGGATCCACTAGTTCTAGAGCGGCCGCCACCGCGGTGGAGCTCCAATTCGCCCTATAGTGAGTCGTATTACAATTCACTG
- binding result (ParA_F (SopA) [3]): no binding

B2: 80-bp IR3-4 probe (dsDNA)
DNA 1: GGTTTTTTGATGAGTCTCTGATTTTGTTGTTGCTTTGCAGTAAATTCAGAGATTTAATAAAAAAACGCAAAGCAATGATT
DNA 2: AATCATTGCTTTGCGTTTTTTTATTAAATCTCTGAATTTACTGCAAAGCAACAACAAAATCAGAGACTCATCAAAAAACC
- Kd (ParA_F (SopA) [4]): 500 ± 325 nM

B3: PparAB_F 120-bp (motifs 122'34) (dsDNA)
DNA 1: GTAGTGTTGCTCTTATTTTAAACAACTTTGCGGTTTTTTGATGACTTTGCGATTTTGTTGTTGCTTTGCAGTAAATTGCAAGATTTAATAAAAAAACGCAAAGCAATGATTAAAGGATGT
DNA 2: ACATCCTTTAATCATTGCTTTGCGTTTTTTTATTAAATCTTGCAATTTACTGCAAAGCAACAACAAAATCGCAAAGTCATCAAAAAACCGCAAAGTTGTTTAAAATAAGAGCAACACTAC
- Kd (ParA_F (SopA) [5]): ~10 nM
- Kd (ParA_F (SopA) [6]): 140 ± 23 nM
- Kd (ParA_F (SopA) [7]): 130 nM
- Kd (ParA_F (SopA) [8]): 85 ± 20 nM

B4: PparAB_F 58-bp (IR3-4) (dsDNA)
DNA 1: TTGTTGTTGCTTTGCAGTAAATTGCAAGATTTAATAAAAAAACGCAAAGCAATGATTA
DNA 2: TAATCATTGCTTTGCGTTTTTTTATTAAATCTTGCAATTTACTGCAAAGCAACAACAA
- binding result (ParA_F (SopA) [9]): no binding

B5: 120-bp IR2-2* (perfect IR in the middle) (dsDNA)
DNA 1: GTAGTGTTGCTCTTATTTTAAACAATCAGTAGGTTTTTTGATGACTTTGCGATTTTGTTGTTGTCAGTAAGTAAATTGCAAAGTTTAATAAAAAAACTCAGTACAATGATTAAAGGATGT
DNA 2: ACATCCTTTAATCATTGTACTGAGTTTTTTTATTAAACTTTGCAATTTACTTACTGACAACAACAAAATCGCAAAGTCATCAAAAAACCTACTGATTGTTTAAAATAAGAGCAACACTAC
- binding result (ParA_F (SopA) [10]): no binding

B6: 120-bp IR2-2*4 (dsDNA)
DNA 1: GTAGTGTTGCTCTTATTTTAAACAATCAGTAGGTTTTTTGATGACTTTGCGATTTTGTTGTTGTCAGTAAGTAAATTGCAAAGTTTAATAAAAAAACGCAAAGCAATGATTAAAGGATGT
DNA 2: ACATCCTTTAATCATTGCTTTGCGTTTTTTTATTAAACTTTGCAATTTACTTACTGACAACAACAAAATCGCAAAGTCATCAAAAAACCTACTGATTGTTTAAAATAAGAGCAACACTAC
- binding result (ParA_F (SopA) [10]): no binding

B7: PparAB_F 136-bp (dsDNA)
DNA 1: ATCTCCTTTTGTAGTGTTGCTCTTATTTTAAACAACTTTGCGGTTTTTTGATGACTTTGCGATTTTGTTGTTGCTTTGCAGTAAATTGCAAGATTTAATAAAAAAACGCAAAGCAATGATTAAAGGATGTTCAGAA
DNA 2: TTCTGAACATCCTTTAATCATTGCTTTGCGTTTTTTTATTAAATCTTGCAATTTACTGCAAAGCAACAACAAAATCGCAAAGTCATCAAAAAACCGCAAAGTTGTTTAAAATAAGAGCAACACTACAAAAGGAGAT
- binding result (ParA_F (SopA) [11]): binds

B8: ParAF (ParA of the Escherichia coli plasmid F partition system ParABSF) (natural protein, UniProt P62556 1-388, looked up)
chain: MKLMETLNQCINAGHEMTKAIAIAQFNDDSPEARKITRRWRIGEAADLVGVSSQAIRDAEKAGRLPHPDMEIRGRVEQRVGYTIEQINHMRDVFGTRLRRAEDVFPPVIGVAAHKGGVYKTSVSVHLAQDLALKGLRVLLVEGNDPQGTASMYHGWVPDLHIHAEDTLLPFYLGEKDDVTYAIKPTCWPGLDIIPSCLALHRIETELMGKFDEGKLPTDPHLMLRLAIETVAHDYDVIVIDSAPNLGIGTINVVCAADVLIVPTPAELFDYTSALQFFDMLRDLLKNVDLKGFEPDVRILLTKYSNSNGSQSPWMEEQIRDAWGSMVLKNVVRETDEVGKGQIRMRTVFEQAIDQRSSTGAWRNALSIWEPVCNEIFDRLIKPRWEIR
notes: native protein; also called SopA; source: E. coli strain DLT812 derivative carrying pDAG127 (ParaBAD::parAF), purified (heparin, Superdex 200, mono-Q)
- stoichiometry N [12]: 2
